Assay results published in patent publication US12534501B2, “Targeting deregulated Wnt signaling in cancer using stabilized alpha-helices of BCL-9” (Dana-Farber Cancer Institute, Inc., priority 2011, dated 2026).

Assays:
Colo320 cells = experiment: Cellular uptake of FITC-labelled peptides; format: cell-based; conditions: FITC derivatives
Method: (§1) For fluorescence microscopy evaluation, cells were prepared using a cytocentrifuge (Thermo Shandon) and fixed as previously described (Sukhdeo, K. et al. Proc Natl Acad Sci USA 104, 7516-21 (2007); Mani, M. et al. Cancer Res 69, 7577-86 (2009)). Anti-β-catenin and rhodamine-conjugated secondary antibodies (5 μg/ml; Southern Biotechnology) were employed. Images were obtained using a BioRad Radiance 2000 laser scanning confocal microscope. Cell permeability of SAH-BCL9B and SAH-BCL9B(R359E) were determined by fluorescence microscopy of cells treated with FITC-derivatives of the above described stapled peptides and also by blotting/fluorescence scan, performed as previously described (Pitter, K. et al Methods Enzymol, 446, (2008), 387-408; Walensky, L. D. et al. Science 305, 1466-70 (2004). See results in FIG. 1E, FIG. 7.

MM1S cells = experiment: Cellular uptake of FITC-labelled peptides; format: cell-based; conditions: FITC derivatives
Method: as §1

IκBα and actin = experiment: Anti-FITC pulldown from MCF7 lysates (unrelated proteins); format: cell-based; conditions: MCF7 cells, selectivity
Excerpt: (§2) Western blotting, performed as described (Sukhdeo, K. et al. Proc Natl Acad Sci USA 104, 7516-21 (2007)), employed the following primary antibodies: BCL9 (6109) (Mani, M. et al. Cancer Res 69, 7577-86 (2009)), BCL9 (ab37305, Abcam), B9L (AF4967, R&D Systems), β-catenin (CAT5-H10, Zymed), FITC (ab19224, Abcam), Actin-HRP (C-11, Santa Cruz), Caspase3 (#9662, Cell Signaling), IκBα (#9242, Cell signaling), PARP (#9542, Cell Signaling), E-cadherin (#3195, Cell Signaling), and Lamin B (sc-6217, Santa Cruz). Horseradish peroxidase conjugated secondary antibodies were purchased from Santa Cruz and SouthernBiotech. Co-immunoprecipitation was performed as described (Walensky, L. D. et al. Science 305, 1466-70 (2004)). Briefly, cells were lysed in 50 mM Tris, 150 mM NaCl, and 1% CHAPS buffer containing protease and phosphatase inhibitors. Lysates were precleared with Protein A/G PLUS-agarose beads (Santa Cruz Biotechnologies) for 3 hours followed by overnight incubation at 4° C. with the respective antibodies. Agarose A/G beads were then added for 4 h, pelleted, and washed as described (Walensky, L. D. et al. Science 305, 1466-70 (2004)). See results in FIG. 1D, FIG. 1H, FIG. 2A, FIG. 8.

β-catenin = biological target: T1, β-catenin (Homo sapiens, UniProt P35222); experiment: Anti-FITC / anti-β-catenin co-immunoprecipitation from lysates of peptide-treated cells; format: cell-based; conditions: FITC and β-catenin immunoprecipitation, in situ
T1 construct: endogenous in cells; host or cells: Colo320
T1 sequence (P35222 1-781): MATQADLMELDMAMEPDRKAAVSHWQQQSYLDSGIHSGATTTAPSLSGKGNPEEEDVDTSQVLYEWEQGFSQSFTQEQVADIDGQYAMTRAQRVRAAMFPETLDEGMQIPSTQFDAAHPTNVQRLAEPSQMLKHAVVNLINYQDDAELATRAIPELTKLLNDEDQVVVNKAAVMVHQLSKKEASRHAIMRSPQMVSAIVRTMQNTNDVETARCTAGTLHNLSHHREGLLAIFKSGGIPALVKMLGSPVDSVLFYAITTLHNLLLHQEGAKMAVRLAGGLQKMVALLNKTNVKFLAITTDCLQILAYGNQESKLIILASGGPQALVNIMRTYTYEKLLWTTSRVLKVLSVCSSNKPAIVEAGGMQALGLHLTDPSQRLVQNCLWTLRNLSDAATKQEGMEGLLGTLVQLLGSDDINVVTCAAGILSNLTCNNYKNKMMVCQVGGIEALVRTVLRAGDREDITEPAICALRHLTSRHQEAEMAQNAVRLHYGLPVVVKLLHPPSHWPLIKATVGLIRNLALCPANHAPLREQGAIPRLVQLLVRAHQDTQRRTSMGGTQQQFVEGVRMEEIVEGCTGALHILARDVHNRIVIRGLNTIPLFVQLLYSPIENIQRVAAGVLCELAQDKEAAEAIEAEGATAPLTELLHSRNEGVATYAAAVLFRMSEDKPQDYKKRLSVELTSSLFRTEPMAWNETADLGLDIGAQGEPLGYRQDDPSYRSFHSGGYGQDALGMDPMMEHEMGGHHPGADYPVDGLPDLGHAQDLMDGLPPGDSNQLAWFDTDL
Excerpt: as §2

[1] = biological target: T2, β-catenin/E-cadherin interaction (Homo sapiens, UniProt P35222); experiment: Anti-β-catenin co-immunoprecipitation of E-cadherin from MCF7 cell lysates; format: cell-based; conditions: selectivity
T2 construct: anti-β-catenin co-immunoprecipitation of E-cadherin from MCF7 cell lysates; endogenous in cells; host or cells: MCF7
T2 sequence (P35222 2-781 limits assumed): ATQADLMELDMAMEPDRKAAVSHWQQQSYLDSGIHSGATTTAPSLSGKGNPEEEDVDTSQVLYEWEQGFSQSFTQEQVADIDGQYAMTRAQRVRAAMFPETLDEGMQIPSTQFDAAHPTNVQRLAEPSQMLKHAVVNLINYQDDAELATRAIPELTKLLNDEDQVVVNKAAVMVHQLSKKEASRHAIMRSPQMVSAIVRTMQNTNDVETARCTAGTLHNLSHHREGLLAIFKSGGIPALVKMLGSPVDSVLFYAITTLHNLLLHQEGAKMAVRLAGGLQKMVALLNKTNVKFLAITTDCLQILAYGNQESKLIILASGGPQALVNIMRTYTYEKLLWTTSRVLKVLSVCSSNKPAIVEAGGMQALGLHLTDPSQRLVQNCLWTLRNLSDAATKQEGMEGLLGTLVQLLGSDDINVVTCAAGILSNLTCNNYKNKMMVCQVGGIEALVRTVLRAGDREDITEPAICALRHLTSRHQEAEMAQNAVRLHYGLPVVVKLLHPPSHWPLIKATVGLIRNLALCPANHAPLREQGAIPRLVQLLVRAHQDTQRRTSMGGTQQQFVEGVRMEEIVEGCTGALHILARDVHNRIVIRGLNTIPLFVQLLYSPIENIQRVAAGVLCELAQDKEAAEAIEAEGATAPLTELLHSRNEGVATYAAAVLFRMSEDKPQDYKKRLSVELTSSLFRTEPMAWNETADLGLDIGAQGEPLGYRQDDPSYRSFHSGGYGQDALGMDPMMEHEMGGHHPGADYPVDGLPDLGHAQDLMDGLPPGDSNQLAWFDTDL
Excerpt: as §2

[2] = test system: β-catenin/TCF interaction; conditions: Lepourcelet et al. 2004; cited from earlier work
[3] = Sukhdeo et al. 2007; cited from earlier work
colon cancer cells = conditions: Lepourcelet et al. 2004; cited from earlier work

Substance	cellular uptake (Colo320 cells)	temperature-dependent uptake (Colo320 cells)	cellular uptake (MM1S cells)	co-immunoprecipitation of unrelated proteins (IκBα, actin) (IκBα and actin)	β-catenin interaction by co-immunoprecipitation (β-catenin)	effect on β-catenin's interaction with E-cadherin [1]	Wnt-specific transcriptional activity [2]	toxicity in treated mice [3]	growth of colon cancer cells (colon cancer cells)
FITC-SAH-BCL9B(R359E): FITC derivative of SAH-BCL9B(R359E)	equivalent cellular uptake	equivalent temperature-dependent uptake	equivalent cellular uptake						
FITC-SAH-BCL9B: FITC derivative (via β-Ala at the amino terminus) of SAH-BCL9B	equivalent cellular uptake	equivalent temperature-dependent uptake	equivalent cellular uptake	no co-immunoprecipitation of unrelated proteins	dose-responsively co-immunoprecipitated with β-catenin	no effect			
PKF115-584							blocked Wnt-specific transcriptional activity	severe bone marrow hypoplasia, anemia, and generalized wasting	reduced the growth of colon cancer cells
SAH-BCL9B(H358D): SEQ ID NO: 6: LSQEQLEDRERSLXTLRXIQRBLF; reverse polarity point mutant of SAH-BCL9B	similar				impaired β-catenin interaction				
